Measured values taken from article PMC10522489, “Eukaryotic-like gephyrin and cognate membrane receptor coordinate corynebacterial cell division and polar elongation” (Nature Microbiology, 2023).

B3: Glp (gephyrin-like protein, Cgl0883), untagged (natural protein, Corynebacterium glutamicum ATCC13032, UniProt Q8NS03 1-419, looked up)
chain: MRSVEQQLSIVTEAAVAPEPVRIAIAEALGLMCAEEVQASRALPGFAQAAIDGYAVRAVDVGGEKSLSQQLPVAPPEKSLPVVGEVAAGSQQPLRLQPKQAVMVHTGAPLPMLADAVLPMAWSDRGRKRVTAQRPVRSGEFVRKEGDDIQPGDIAVSAGAVLGPAQIGLLAAVGRSKVLVYPRPRMSVISVGAELVDIDRQPGLGQVYDVNSYSLAAAGREAGADVYRYGIAAGEPRRIKEIIESQMLRSEIIVITGAVGGAGSAGVRQVLNELGDIDTERVAMHPGSVQGFGLLGENKIPCFLLPSNPVASLVIFETFVRPVVRMSLGKSNAARRVVRARALNHVVSVAGRKGFIRSRLMRDAETQDYLVEALGGATGAPSHLLAGLSEANGMIRIPEDVTEIRPGDVVDVIFLAQGR
notes: Glp (gephyrin-like protein, annotated molybdopterin molybdotransferase MoeA), Corynebacterium glutamicum ATCC13032, locus Cgl0883; Homodimer in the crystal structures; Called 'untagged Glp' in the BLI on GlpR; also called gephyrin-like repurposed molybdotransferase; MoeA paralogue; source: E. coli BL21 (DE3), purified (Ni-NTA, SUMO protease, SEC); not shown: His6, N-terminal, cleaved; SUMO, …

Tests used:
[1] = target: Biotinylated His-GlpR (Corynebacterium glutamicum ATCC13032); assay: BLI; biotinylated GlpR immobilised on streptavidin biosensors; Wag31 150–2.34 μM in buffer A (20 mM HEPES pH 8.5, 150 mM NaCl, DDM 0.05%); 25 °C; apparent Kd from steady-state fit, one-site model
[2] = target: Biotinylated His-GlpR (Corynebacterium glutamicum ATCC13032); assay: BLI; biotinylated GlpR immobilised on streptavidin biosensors; Wag31 1-61 (DivIVA) 200–3.15 μM in buffer B (25 mM HEPES pH 7.5, 150 mM NaCl, 10% glycerol, 0.05% DDM, 1 mg/ml BSA); 25 °C; apparent Kd from steady-state fit, one-site model
[3] = target: B3; assay: differential scanning fluorescence (thermofluor); Glp 3 μg in 25 mM HEPES pH 8, 150 mM NaCl, 5% glycerol with or without 1 mM FtsZCTD; Sypro Orange; 25 to 95 °C; conditions: both partners purified
[4] = target: B3; assay: BLI; C-terminal His-tagged GlpR immobilised on Ni-NTA biosensors; untagged Glp variants (Glp 100–1.56 nM) in 25 mM HEPES pH 7.5, 150 mM NaCl, 10% glycerol, 0.05% DDM, 1 mg/ml BSA; 25 °C; apparent Kd from steady-state fit; conditions: both partners purified
His-SUMO-FtsZ = target: T1, His-SUMO-FtsZ (Corynebacterium glutamicum, UniProt P94337 1-442); assay: BLI; His-SUMO-FtsZ immobilised on Ni-NTA biosensors; Glp 80–1.25 μM in 2-fold dilutions; polymerization buffer (25 mM Pipes pH 6.9, 100 mM KCl, 10 mM MgCl2); 25 °C; apparent Kd from steady-state fit, one-site model; conditions: both partners purified
T1 construct: FtsZ, tubulin-like cell division protein, Corynebacterium glutamicum; Captured on Ni-NTA biosensors; also called 6xHis-SUMO-FtsZ; immobilized SUMO-FtsZ; source: E. coli BL21 (DE3), purified (Ni-NTA, SEC); not shown: His6, N-terminal, kept; SUMO, N-terminal, kept
T1 sequence (looked up): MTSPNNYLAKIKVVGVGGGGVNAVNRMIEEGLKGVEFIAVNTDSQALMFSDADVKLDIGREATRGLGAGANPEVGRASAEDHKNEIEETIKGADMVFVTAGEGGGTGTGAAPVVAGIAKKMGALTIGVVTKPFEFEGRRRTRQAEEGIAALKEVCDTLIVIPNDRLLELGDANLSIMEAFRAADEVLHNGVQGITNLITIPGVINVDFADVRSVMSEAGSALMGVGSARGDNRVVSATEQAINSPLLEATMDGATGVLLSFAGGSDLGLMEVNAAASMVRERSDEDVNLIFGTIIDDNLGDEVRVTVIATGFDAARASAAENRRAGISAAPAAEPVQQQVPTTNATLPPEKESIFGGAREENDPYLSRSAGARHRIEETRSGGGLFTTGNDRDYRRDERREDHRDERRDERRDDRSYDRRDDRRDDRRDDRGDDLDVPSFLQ

[5] = target: the molecule itself; assay: crystal structure; 0.34 mM Glp with 1.7 mM FtsZCTD peptide; 0.1 M NaCl, 0.1 M Bis-Tris pH 6.5, 1.5 M (NH4)2SO4; 2.7 Å

Molecule: Wag31, full length (natural protein)
- Kd [1]: 43.4 µM

Molecule: Wag31_(1–61) (N-terminal DivIVA domain of Wag31) (domain or fragment)
- Kd [2]: 14.9 µM

B1: FtsZCTD peptide (peptide)
peptide: DDLDVPSFLQ
notes: C-terminal 10 residues of FtsZ, Corynebacterium glutamicum; also called 10-residue peptide FtsZCTD; C-terminal domain of FtsZ; source: synthetic peptide, bought: Genosphere
- Tm shift of Glp [3]: 2 °C

B2: GlpR (Glp receptor, Cgl0885), C-terminal His tag (receptor, Corynebacterium glutamicum ATCC13032, UniProt Q8NS01 1-340, looked up)
chain: MLHVSGILVIGLIVVVWLVVLAPLLLRGQKPIAKAGEAFDDTRVISEGGSNIPSPRRPGLSSAQLDDEEDTDDVDDDYEIVDSPSIFRPRKEEPVEEDLDTDVELEEDIEVSLETDDYVEPAPVVEVSQEWNVEDHYELDDSYDTPLDHLHPAARARAYEDFQEHQPEQQPEVEEFDADDELTEEDVAFAQRRRGRGYYDPEADREFAASQYVRRQRTLLGLAATVVISVILGFVFGGWVWGLPAVALAATALYLMALRSQVREENALRARRIRRLRRSRMGVRNSEDLPSRLRRPGAVVLELDDESPDFEGLPTVAMPEEPYYEEPRRNIRHLGQRRVS
notes: GlpR, integral membrane protein with 3 predicted transmembrane helices, Corynebacterium glutamicum ATCC13032, locus Cgl0885; In 0.05% DDM; also called C-terminal His-tagged GlpR; immobilized GlpR; source: E. coli BL21 (DE3), purified from membranes in DDM (Ni-NTA, SEC); not shown: His6, C-terminal, kept
- Kd [4]: 5.5 ± 0.75 nM

Molecule: B3
- Kd (His-SUMO-FtsZ): 4.7 ± 0.77 µM
- stoichiometry N [5]: 2
